Assay results from patent US20230348564A1, “ANTI-CANCER PROTEINS” (UNICHEM LABORATORIES LTD, priority 2020, published 2023).

Tests used:
[1] = test system: AGS
[2] = test system: MDA-MB-453
[3] = test system: neovascularization of Matrigel plug containing FGF-2 (bFGF); assay: Matrigel plug assay (in-vivo anti-angiogenesis); parameters: species or system C57BL/6 mice; conditions: qdx15
Experimental: Healthy C57BL/6 mice were selected and grouped on the basis of body weight into […] (G1-G4, n=7). Each mouse of group G2-G4 was subcutaneously injected at right flank region with 500 μl of matrigel containing 500 ng of FGF-2 (bFGF). Whereas mice of G1 group were subcutaneously injected at right flank region with 500 μl of matrigel only. In this assay, angiogenesis-inducing compounds such as bFGF was introduced into cold liquid Matrigel which, after subcutaneous injection, solidified and permits penetration by host cells and the formation of new blood vessels (neovascularization).
Required amount of test items were taken and added to an appropriate volume of Tris Buffered Saline (TBS) to achieve the required concentrations. The dose volume given to animal was 10 mL/Kg.
Daily cage-side observations were carried out to detect any clinical signs or mortality and recorded throughout the experiment period.

[4] = test system: IL-4/STAT6; assay: SelectScreen Cell-based Pathway Profiling (GeneBLAzer bla reporter); parameters: species or system Human; conditions: 0.0158 μg/mL-0.5 μg/mL
Experimental: (§1) The mechanism of action of the recombinant lectin having the amino acid sequence of SEQ ID NO.2 is studied by determining its effect on the modulation of key signaling pathways involved in the pathogenesis of cancer. The study was performed using SelectScreen® Cell-based Pathway Profiling Services at Life Technologies, USA. Modulatory effect of Lectin having the amino acid sequence of SEQ ID NO. 2 on various cell signaling pathways was investigated in cell lines overexpressing specific markers using GeneBLAzer Beta-lactamase (bla) Reporter Technology and Tango platforms. The cell lines tested were MDA-MB-231 (Human Breast cancer), KB (Human Cervical cancer), PA-1 (Human ovarian cancer), PANC-1 (Human pancreatic cancer), HT-29 (Human colorectal cancer), T-24 (Human Bladder cancer)
(§2) 10 mg of recombinant lectin having the amino acid sequence of SEQ ID NO.2 was dissolved in 200 μL of TBS buffer (25 mM, pH 8.0) to obtain stock solution of 50 mg/mL. The stock solutions were diluted in Serum Free Medium (STM) to achieve final concentrations in cells ranging from 0.00158 μg/mL-50 μg/mL. Cells (32 μL) were diluted in Assay Media to appropriate cell density and were added to the assay plate. Cells were incubated at 37° C./5% CO2 for 24 h. 40 nL of 1000×sample and 4 μL of assay medium was added to the cells in the assay plate and incubated for 30 minutes at 37° C./5% CO2 in a humidified incubator. Then, 4 μL of the 10×EC80 concentration of activator was added to all wells containing sample to bring the final assay volume to 40 μL. The assay plate was incubated for 16 hours at 37° C./5% CO2 in a humidified incubator. Further, 8 μL of the Substrate Loading Solution (LiveBLAzer™—FRET B/G) was added to the assay plate. The assay plate was incubated for 2 hours at room temperature, in the dark. The assay plate was read on a fluorescence plate reader (Tecan Safire2). Fluorescence emission values at 460 nm and 530 nm were obtained using a standard florescence plate reader and % modulation was determined.
(§3) % Modulation=[(A−B)/A]*100
(§4) Where, A=Fluorescence reading in Control (untreated cells) B=Fluorescence reading in TI treated cells

[5] = test system: ADBR1; assay: as above; parameters: species or system Human; conditions: 0.158 μg/mL-50 μg/mL
Experimental: as §1, §2, §3, §4

[6] = test system: NF-KB; assay: as above; parameters: species or system Human; conditions: 0.5 μg/mL-50 μg/mL
Experimental: as §1, §2, §3, §4

[7] = test system: PI3K/AKT/FOXO3; assay: as above; parameters: species or system Human; conditions: 0.5 μg/mL-50 μg/mL
Experimental: as §1, §2, §3, §4

[8] = test system: MAPK/EGFR/Ras/Raf; assay: as above; parameters: species or system Human; conditions: 0.158 μg/mL-50 μg/mL
Experimental: as §1, §2, §3, §4

[9] = test system: PKC/Ca2+; assay: as above; parameters: species or system Human
Experimental: as §1, §2, §3, §4

[10] = test system: TNF-alpha/JNK; assay: as above; parameters: species or system Human; conditions: 0.5 μg/mL-50 μg/mL
Experimental: as §1, §2, §3, §4

[11] = test system: CCR5; assay: as above; parameters: species or system Human; conditions: 0.058 μg/mL-50 μg/mL
Experimental: as §1, §2, §3, §4

B1: SEQ ID NO. 2: recombinant lectin; variant of the S. rolfsii lectin amino acid sequence (reported as Rec-2 in WO 2010/095143) (protein)
chain: TYKITVRVYQTNPDAFFHPVEKTVWKYANGGTWTITDDQHVLTMGGSGTSGTLRFHADNGESFTATFGVHNYKRWCDIVTNLAADETGMVINQQYYSQKNREEARERQLSNYQVKNAKGRNFQIVYTEAEGNDLHANLIIG
modifications: In vitro synthesis
[1]
  % Cytotoxicity: 65.3%
[2]
  % Cytotoxicity: 46.6%
[3]; 10 mg/Kg, i.p.
  neovascularization (H&E histology), in words: marginally reduced
[3]; G4, 10 mg/Kg, i.p.
  Hemoglobin Content in the Matrigel Plug Section, Mean: 41.10
  reduction in hemoglobin content in homogenate of Matrigel plug compared to positive control: 23.6%
[3]; G4, 10 mg/Kg
  Histological Observation, Fat cell Infiltration, Mean: 1.57
  Histological Observation, Fibroblast Infiltration, Mean: 3.29
  Histological Observation, MN cell Infiltration, Mean: 2.71
  Histological Observation, Neovascularization, Mean: 2.43
[4]
  Effect (wrt control), inhibition: 16%-28% inhibition
[4]; listed as recombinant lectin
  Effect (wrt control), inhibition: 16% to 28%
[5]
  Effect (wrt control), inhibition: 26%-49% inhibition
[5]; listed as recombinant lectin
  Effect (wrt control), inhibition: 26% to 49%
[6]
  Effect (wrt control), inhibition: 3%-13% inhibition
[6]; listed as recombinant lectin
  Effect (wrt control), inhibition: 3% to 13%
[7]
  Effect (wrt control), inhibition: 2%-73% inhibition
[7]; listed as recombinant lectin
  Effect (wrt control), inhibition: 2% to 73%
[8]
  Effect (wrt control), inhibition: 2%-48% inhibition
[8]; listed as recombinant lectin
  Effect (wrt control), inhibition: 2% to 48%
[9]; 0.00158 μg/mL to 0.5 μg/mL
  effective inhibition: 5% to 19%
[9]; 0.00158 μg/mL-0.158 μg/mL
  Effect (wrt control), inhibition: 5%-19% inhibition
[10]
  Effect (wrt control), inhibition: 12%-45% inhibition
[10]; listed as recombinant lectin
  Effect (wrt control), inhibition: 12% to 45%
[11]
  Effect (wrt control), inhibition: 21%-70% inhibition
[11]; listed as recombinant lectin
  Effect (wrt control), inhibition: 21%-70%
